# Experimental data reported in IntAct's records for PubMed 31548606.
# B1: Prelamin-A/C (Homo sapiens), P02545-1 (parent)
# chain: METPSQRRATRSGAQASSTPLSPTRITRLQEKEDLQELNDRLAVYIDRVRSLETENAGLRLRITESEEVVSREVSGIKAAYEAELGDARKTLDSVAKERARLQLELSKVREEFKELKARNTKKEGDLIAAQARLKDLEALLNSKEAALSTALSEKRTLEGELHDLRGQVAKLEAALGEAKKQLQDEMLRRVDAENRLQTMKEELDFQKNIYSEELRETKRRHETRLVEIDNGKQREFESRLADALQELRAQHEDQVEQYKKELEKTYSAKLDNARQSAERNSNLVGAAHEELQQSRIRIDSLSAQLSQLQKQLAAKEAKLRDLEDSLARERDTSRRLLAEKEREMAEMRARMQQQLDEYQELLDIKLALDMEIHAYRKLLEGEEERLRLSPSPTSQRSRGRASSHSSQTQGGGSVTKKRKLESTESRSSFSQHARTSGRVAVEEVDEEGKFVRLRNKSNEDQSMGNWQIKRQNGDDPLLTYRFPPKFTLKAGQVVTIWAAGAGATHSPPTDLVWKAQNTWGCGNSLRTALINSTGEEVAMRKLVRSVTVVEDDEDEDGDDLLHHHHGSHCSSSGDPAEYNLRSRTVLCGTCGQPADKASASGSGAQVGGPISSGSSASSVTVTRSYRSVGGSGGGSFGDNLVTRSYLLGNSSPRTQSPQNCSIM
# B2: Isoform 5 of Intermediate filament family orphan 1 (Homo sapiens), Q0D2I5-5 (parent)
# chain: MNPLFGPNLFLLQQEQQGLAGPLGDSLGGDHFAGGGDLPPAPLSPAGPAAYSPPGPGPAPPAAMALRNDLGSNINVLKTLNLRFRCFLAKVHELERRNRLLEKQLQQALEEGKQGRRGLGRRDQAVQTGFVSPIRPLGLQLGARPAAVCSPSARVLGSPARSPAGPLAPSAASLSSSSTSTSTTYSSSARFMPGTIWSFSHARRLGPGLEPTLVQGPGLSWVHPDGVGVQIDTITPEIRALYNVLAKVKRERDEYKRRWEEEYTVRIQLQDRVNELQEEAQEADACQEELALKVEQLKAELVVFKGLMSNNLSELDTKIQEKAMKVDMDICRRIDITAKLCDVAQQRNCEDMIQMFQKKLVPSMGGRKRERKAAVEEDTSLSESEGPRQPDGDEEESTALSINEEMQRMLNQLREYDFEDDCDSLTWEETEETLLLWEDFSGYAMAAAEAQGEQQEDSLEKVIKDTESLFKTREKEYQETIDQIELELATAKNDMNRHLHEYMEMCSMKRGLDVQMETCRRLITQSGDRKSPAFTAVPLSDPPPPPSEAEDSDRDVSSDSSMR
# Variants of: B1
# Conditions: with iffo1_human IFFO1, Q0D2I5
row,effect of a mutation on the interaction,Variant
1,disrupting interaction strength,E358K
2,disrupting interaction strength,R386M

# Variants of: B2
# Conditions: with xrcc4_human XRCC4, Q13426
# xrcc4_human XRCC4, Q13426, sequence (Q13426 whole entry): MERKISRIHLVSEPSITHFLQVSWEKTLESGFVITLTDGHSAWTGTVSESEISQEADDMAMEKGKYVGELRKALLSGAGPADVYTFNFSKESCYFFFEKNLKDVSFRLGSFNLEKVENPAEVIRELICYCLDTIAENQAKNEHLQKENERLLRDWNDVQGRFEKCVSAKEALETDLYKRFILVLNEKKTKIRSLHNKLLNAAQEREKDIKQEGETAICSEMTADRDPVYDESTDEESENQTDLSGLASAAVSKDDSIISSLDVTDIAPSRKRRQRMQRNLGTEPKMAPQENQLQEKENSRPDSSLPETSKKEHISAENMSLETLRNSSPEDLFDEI
row,Variant,effect of a mutation on the interaction
1,C519R,disrupting interaction strength
2,M516R;C519R,disrupting interaction strength
3,D494A;R520A,disrupting interaction strength

# Other lines, results leading:
row,effect of a mutation on the interaction,Variant
1,disrupting interaction strength,I484R;A491R
2,disrupting interaction strength,D494A;D513A;R520A

# Variants of: B2
# Conditions: with lmna_human LMNA
row,Variant,effect of a mutation on the interaction
1,A65V,with no effect
2,A89T,with no effect

# Other lines, results leading:
row,effect of a mutation on the interaction,Variant
1,disrupting interaction strength,N73D
2,decreasing interaction strength,N73K
3,with no effect,A65P
4,disrupting interaction strength,R85H
5,with no effect,A89V

# Variants of: B2
# Conditions: with lmna_human LMNA
# Remark: another data set of the same source
row,effect of a mutation on the interaction,Variant
1,disrupting interaction strength,N73D;R85H
